The results in this text go back to article doi:10.1101/2021.11.29.470334 (bioRxiv, 2021).

This series concerns the molecule itself. Briefly: cryo-EM structure.

B1: Kir6.2 from Mus musculus (mmKir6.2) H175K mutant, as the Kir6.2 subunit of H175K_(cryoEM) (natural protein)
chain: LSRKGIIPEEYVLTRLAEDPAEPRYRTRERRARFVSKKGNCNVAHKNIREQGRFLQDVFTTLVDLKWPHTLLIFTMSFLCSWLLFAMVWWLIAFAHGDLAPGEGTNVPCVTSIHSFSSAFLFSIEVQVTIGFGGRMVTEECPLAILILIVQNIVGLMINAIMLGCIFMKTAQAKRRAETLIFSKHAVITLRHGRLCFMLRVGDLRKSMIISATIHMQVVRKTTSPEGEVVPLHQVDIPMENGVGGNGIFLVAPLIIYHVIDSNSPLYDLAPSDLHHHQDLEIIVILEGVVETTGITTQARTSYLADEILWGQRFVPIVAEEDGRYSVDYSKFGNTIKVPTPLCTARQLDEDRSLLDALTLASSRGPLRKRSVAVAKAKPKFSISPDSLS
Take B1: the binding result is on record as “binds”.
